Test results as given in publication PMC6054272, “Arabidopsis SKP1-like protein13 (ASK13) positively regulates seed germination and seedling growth under abiotic stress” (Journal of Experimental Botany, 2018).

Biological target: the molecule itself
Assay: SEC; purified recombinant His-tagged ASK13; Superose 6 column by the legend; fractions confirmed by dot blot with an anti-His antibody

B1: Recombinant His-tagged ASK13 (natural protein, Arabidopsis thaliana, UniProt Q9M1X5 1-154, looked up)
chain: MSKMVMLLSSDGESFQVEEAVAVQSQTIAHMIEDDCVANGVPIANVTGVILSKVIEYCKKHVVSDSPTEESKDELKKWDAEFMKALEQSSTLFDVMLAANYLNIKDLLDLGCQTVADMITGKKPDEIRALLGIENDFTPEEEEEIRKENQWAFE
notes: ASK13 (SKP1-like protein13), Arabidopsis thaliana, At3g60010; sub-cloned into pET23d; Found as monomer and dimer; also called recombinant ASK13; his-tagged ASK13 protein; not shown: His tag, C-terminal, kept
stoichiometry N: 2
